Experimental data from US11827701B2, “IL-6 binding molecules” (argenx BV, priority 2012, dated 2023).
Numbering of substitutions follows the chain as printed.

B1: 41B5: light chain shuffled Fab of parental 17F10 (antibody, V domains shown)
VH: EVQLQESGPGLVKPSQTLSLTCTVSGGSIATSYYAWSWIRQPPGKGLEWMGVIDYDGDTYYKPSLKSRTSISRDTSKNQFSLQLSSVTPEDTAVYYCARAGLGDSYYLGTYYAMDYWGKGTLVTVSS
VL: QSALTQPPSMSGTLGKTLTISCNGTSSDIGSGDYVSWYQQLPGTTPKLLIEGVTTRASGIPDRFSASKSDNTASLTISGLQSEDEATYYCASYRETNNVVFGGGTHLTVLS
B2: 17F10: antagonistic IL-6-specific Fab clone from immunized llama (antibody, listed as Lama glama, V domains shown)
VH: B1 VH
VL: QAGLTQPPSVSGSPGKTVTISCAGTTSDVGTGNFVSWYQQLPGMAPKLLIYDVNKRASGIADRFSGSKSGNTASLTISGLQSEDEADYYCASYRSLNNVVFGGGTHLTVLG
B3: 55C1a: 29B11 chain shuffled Fab, periplasmic fraction (antibody, V domains shown)
VH: EVQLVESGGGLVQPGGSLRLSCAASGFTFSSYAMSWVRQAPGKGLEWVSRISSGGISTYYADSVKGRFTISRDNAKNTLYLQMNSLKPEDTAVYYCVRYAWGVQWAFDFWGQGTQVTVSS
VL: ALNFMLTQPPSVSGSPGKTVTISCAGTSSDVGYGNYVSWYQQLPGTAPKLLIYNVNKRASGITDRFSGSKSGNTASLTISGLQSEDEADYYCASYRTGDNAAFGGGTKLTVLG
B4: 48C10: 29B11 chain shuffled Fab, periplasmic fraction (antibody, listed as Lama glama, V domains shown)
VH: B3 VH
VL: AQSVLTQPPSVSGSPGQTVTISCAGTSEDVGYGNYVSWYQQLPGMAPKLLIYDVNKRASGIADRFSGSKSGNTASLTISGLQSEDEADYYCASYRRTIDNIFGGGTHLTVLG
B5: 47C2 (R4): 29B11 chain shuffled Fab, periplasmic fraction (antibody, listed as Lama glama, V domains shown)
VH: B3 VH
VL: ALSYDLTQPPSVSGSPGKTVTISCAGTSSDVGYGNYVSWYQQLPGMAPKILIYDVNKRASGIADRFSGSKSGNTASLTISGLQSEDEADYYCASYRRGETIVFGGGTHLTVLG
B6: 55E2b: 29B11 chain shuffled Fab, periplasmic fraction (antibody, V domains shown)
VH: B3 VH
VL: AQSVLTQPPSVSGSPGKTVTISCAGTSSDVGYGNYVSWYQQLPGMAPKLLIYDVNKRASGIADRFSGSKFANTASLTISGLQSEDEADYYCASYKRGDNAVFGGGTKLTVLG
B7: 24D10: antagonistic IL-6-specific Fab clone, parental of 61H7 (antibody, listed as Lama glama, V domains shown)
VH: QLQVVESGGGLVQPGGSLRLSCAASGFTFSSYAMSWVRQAPGKGPEWVSRISSGGGSTSYADSVKGRFTISRDNAKNTLYLQMNSLKPEDTAVYYCANRAGWGMGDYWGQGTQVTVSS
VL: QTVVTQEPSLSVSPGGTVTLTCGLSSGSVTASNYPGWFQQTPGQAPRALIYSTNDRHSGVPSRFSGSISGNKAALTITGAQPEDEADYYCALDIGDITEFGGGTHLTVLG
B8: 24E9: antagonistic IL-6-specific Fab clone from immunized llama (antibody, listed as Lama glama, V domains shown)
VH: B7 VH with Q1E, L2V, V4L, S31T, S59N, N77K, N84K
VL: B7 VL
B9: 18F8: antagonistic IL-6-specific Fab clone from immunized llama (antibody, listed as Lama glama, V domains shown)
VH: EVQLVESGGGLVQPGGSLRLSCAASGFTFSRNAMSWVRQAPGKGLEWVSAINSGGGSTSYADSVKGRFTISRDNAKNTLYLQMNSLKPEDTAVYYCAKEGYTGWKDPMYDYWGQGTQVTVSS
VL: QSALTQPSALSVTLGQTAKITCQGGSLGSRYAHWYQQKPGQAPVLVIYDDDSRPSGIPERFSGSSSGGRATLTISGAQAEDEGDYYCQSADTSEHIVFGGGTHLTVLG
B10: 18C9: antagonistic IL-6-specific Fab clone from immunized llama (antibody, listed as Lama glama, V domains shown)
VH: B9 VH
VL: LNFMLTQPSALSVTLGQTAKITCQGGSLGSRYAHWYQQKPGQAPVLVIYDDDSRPSGIPERFSGSSSGGRATLTISGAQAEDDGDYYCQSADSSGNASVFGGGTHLTVLG
B11: 55A11d: 28A6 chain-shuffled Fab, periplasmic fraction (antibody, V domains shown)
VH: QVQLVESGGGLVQPGGSLRLSCAASGFTFSNYYMTWVRQAPGKGLEWVSSIYSFSGDTAYADSVKGRFTISRDNAKNTLYLQMNSLKSEDTAVYYCTRNLGGVVVTTNGYDYWGQGTQVTVSS
VL: DIQMTQSPSSLPTSLGDSVTITCQASQSISDELSWYQQKPGQTPKLLIYGASRLQTGVPSRFSGRGSGTSFTLTISGLEAEDLATYYCLQGYSWPFMFGQGTKVELK

Legend:
Format in all cases: binding
cynomolgus monkey IL-6 = target: T1, cynomolgus monkey IL-6 (Macaca fascicularis, UniProt P79341); test: Surface plasmon resonance (Biacore), cynomolgus monkey IL-6; conditions: for Koff HIS-cyIL-6: purified chain-shuffled Fabs; for KA / ka / kd: cy/cyno, periplasmic fractions
T1 construct: His
T1 sequence (P79341 28-212): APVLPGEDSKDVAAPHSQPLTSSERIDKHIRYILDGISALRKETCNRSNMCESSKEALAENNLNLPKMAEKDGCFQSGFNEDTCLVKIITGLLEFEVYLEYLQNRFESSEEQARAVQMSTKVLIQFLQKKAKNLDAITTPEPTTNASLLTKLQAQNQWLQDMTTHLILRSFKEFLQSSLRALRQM
Experimental: (§1) VL chain shuffling was used to improve the affinity of the Fabs 17F10, 18C7, 18C9, 18C11, 20A4, 29B11, 16D2 and 28A6. In this method, the heavy chain of these clones (as a VHCH1 fragment) was reintroduced into the primary phagemid-light chain library (see Example 1). Affinity selections were performed to select for chain shuffled Fabs with an improved affinity for IL-6. The binding kinetics of chain shuffled Fabs were evaluated by surface plasmon resonance (Biacore) using both bacterially and eukaryotically produced human IL-6, and cynomolgus monkey IL-6 (Tables 5-7). The VH and VL amino acid sequences of exemplary IL-6-specific Fabs selected by the VL chain shuffling method are set forth in Table 14 below.

[1] = target: T2, eukaryotically produced human IL-6 (Homo sapiens, UniProt P05231); test: Surface plasmon resonance (Biacore), eukaryotically produced human IL-6 coated on CM5 chip; conditions: for Koff eukIL-6: purified chain-shuffled Fabs
T2 construct: purchased Humanzyme HZ-1044; host or cells: Human Embryonic kidney cells
T2 sequence (P05231 30-212): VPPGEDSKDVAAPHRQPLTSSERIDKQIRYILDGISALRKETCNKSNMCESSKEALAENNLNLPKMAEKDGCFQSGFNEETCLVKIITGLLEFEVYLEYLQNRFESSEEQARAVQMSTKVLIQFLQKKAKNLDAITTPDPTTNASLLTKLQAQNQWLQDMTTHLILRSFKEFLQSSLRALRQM
Experimental: (§2) The binding kinetics of IL-6-specific Fabs that were able to cross-compete with the B-E8 antibody was assessed using surface plasmon resonance (Biacore). Specifically, biotinylated (prokaryotic) IL-6 was captured on a streptavidin biacore sensor chip (CM5-SA) and different concentrations of purified Fabs were injected during 3 minutes following by a 5 minute wash with buffer. From the washing phase the off-rate (kd) was determined, while from the injection phase the on-rate (ka) was calculated using the concentration and off-rate as parameters. […] The binding kinetics of antagonistic purified Fabs (Table 3) and periplasmic fractions of Fab-expressing bacteria (Table 4) were also evaluated by surface plasmon resonance (Biacore) using both bacterially and eukaryotically produced human IL-6 directly coated on a CM5 chip. The Fabs tested had off-rates between 6×10^−4 and 2×10^−5 s^−1.
as §1
(§3) VH chain shuffling was also used to improve the affinity of the Fab 24D10. In this method, the light chain of 24D10 was reintroduced into the primary phagemid-heavy chain library (see Example 1) and selected using an off-rate assay. In this type of selection, the phage were allowed to bind to antigen on a substrate for 1.5 to 2 hours. At round 2, after 15 washes with PBS-Tween, an additional wash was performed with the presence of excess soluble IL-6. […] This procedure avoids re-binding of such phage to the coated target. […] The binding kinetics of chain shuffled Fabs and the benchmark antibodies, BE8 and GL18, were evaluated by surface plasmon resonance (Biacore) using both bacterially and eukaryotically produced human IL-6 (Tables 8 and 9). The VH and VL amino acid sequences of exemplary IL-6-specific Fabs selected by the VH chain shuffling method are set forth in Table 14 below. […]

[2] = target: T3, bacterially produced human IL-6 (Homo sapiens, UniProt P05231); test: Surface plasmon resonance (Biacore), bacterially produced human IL-6 coated on CM5 chip
T3 construct: His
T3 sequence (P05231 30-212): as above
Experimental: as §2, §1, §3

[3] = target: biotinylated (prokaryotic) IL-6 (Homo sapiens, UniProt P05231); test: Surface plasmon resonance (Biacore), biotinylated IL-6 captured on streptavidin sensor chip; conditions: purified Fab
Chain of biotinylated (prokaryotic) IL-6 (P05231 30-212): as above
Experimental: as §2

[4] = bact, periplasmic fractions, 29B11 chain shuffled
[5] = euk, periplasmic fractions, 29B11 chain shuffled
[6] = Bact, purified 24D10 chain-shuffled Fabs
[7] = Euk IL-6, purified 24D10 chain-shuffled Fabs
[8] = bact, periplasmic fractions, 28A6 chain-shuffled
[9] = euk, periplasmic fractions, 28A6 chain-shuffled

Molecule | KA [2, 4] [M⁻¹] | ka [2, 4] [M⁻¹ s⁻¹] | kd [2, 4] [s⁻¹] | KA (cynomolgus monkey IL-6; 29B11 chain shuffled) [M⁻¹] | ka (cynomolgus monkey IL-6; 29B11 chain shuffled) [M⁻¹ s⁻¹] | kd (cynomolgus monkey IL-6; 29B11 chain shuffled) [s⁻¹] | KA [3] [M⁻¹] | Rmax [3] [RU] | ka [3] [M⁻¹ s⁻¹] | kd [3] [s⁻¹] | also measured
B1 |  |  |  |  |  |  |  |  |  |  | Koff HIS-cyIL-6 (cynomolgus monkey IL-6): 0.00017 s⁻¹; Koff eukIL-6 [1]: 0.0002 s⁻¹
B2 |  |  |  |  |  |  |  |  |  |  | Koff HIS-huIL-6 ([2]; purified chain-shuffled Fabs): 0.00088 s⁻¹; Koff HIS-cyIL-6 (cynomolgus monkey IL-6): 0.00078 s⁻¹; Koff eukIL-6 [1]: 0.00077 s⁻¹
B3 | 7.6e+09 | 561000 | 7.38e-05 | 1.25e+09 | 475000 | 0.000381 |  |  |  |  | KA [1, 5]: 5.55e+09 M⁻¹; ka [1, 5]: 440000 M⁻¹ s⁻¹; kd [1, 5]: 7.93e-05 s⁻¹
B4 | 1.43e+09 | 262000 | 0.000184 | 4.1e+08 | 180000 | 0.00044 |  |  |  |  | 
B5 | 3.56e+09 | 1.12e+06 | 0.000315 | 6.48e+08 | 851000 | 0.00131 |  |  |  |  | KA [1, 5]: 3.54e+09 M⁻¹; ka [1, 5]: 849000 M⁻¹ s⁻¹; kd [1, 5]: 0.00024 s⁻¹
B6 | 7.28e+09 | 489000 | 6.72e-05 | 1.39e+09 | 468000 | 0.000336 |  |  |  |  | KA [1, 5]: 6.34e+09 M⁻¹; ka [1, 5]: 414000 M⁻¹ s⁻¹; kd [1, 5]: 6.53e-05 s⁻¹
B7 |  |  |  |  |  |  | 3.7e+09 | 40.6 | 62700 | 1.69e-05 | ka [2, 6]: 210000 M⁻¹ s⁻¹; kd [2, 6]: 0.0001 s⁻¹; off-rates (range) [3]: ~10^−5 s^−1; ka [1, 7]: 250000 M⁻¹ s⁻¹; kd [1, 7]: 0.0001 s⁻¹; binding ([1]; periplasmic fractions ('pur' = purified Fab), IL-6 form not stated): 301
B8 |  |  |  |  |  |  | 8.38e+08 | 41 | 117000 | 0.000139 | 
B9 |  |  |  |  |  |  | 6.18e+07 | 51.5 | 48400 | 0.000784 | 
B10 |  |  |  |  |  |  | 4.67e+07 | 49.9 | 55600 | 0.00119 | 
B11 |  |  |  |  |  |  |  |  |  |  | KA [2, 8]: 2.78e+09 M⁻¹; ka [2, 8]: 188000 M⁻¹ s⁻¹; kd [2, 8]: 6.76e-05 s⁻¹; KA (cynomolgus monkey IL-6; 28A6 chain-shuffled): 1.77e+09 M⁻¹; ka (cynomolgus monkey IL-6; 28A6 chain-shuffled): 144000 M⁻¹ s⁻¹; kd (cynomolgus monkey IL-6; 28A6 chain-shuffled): 8.17e-05 s⁻¹; KA [1, 9]: 1.59e+09 M⁻¹; ka [1, 9]: 101000 M⁻¹ s⁻¹; kd [1, 9]: 6.36e-05 s⁻¹
